From PMC7511232 (eLife, 2020)
One block for each binder: values may come before it.

Experiments:
SEC = target: the molecule itself; test: SEC
HA-fused Atg1(593-830) = HA-fused Atg1(593-830) (S. pombe, UniProt Q9Y7T4 593-830); test: pull-down
HA-fused Atg1(593-830), sequence (Q9Y7T4 593-830): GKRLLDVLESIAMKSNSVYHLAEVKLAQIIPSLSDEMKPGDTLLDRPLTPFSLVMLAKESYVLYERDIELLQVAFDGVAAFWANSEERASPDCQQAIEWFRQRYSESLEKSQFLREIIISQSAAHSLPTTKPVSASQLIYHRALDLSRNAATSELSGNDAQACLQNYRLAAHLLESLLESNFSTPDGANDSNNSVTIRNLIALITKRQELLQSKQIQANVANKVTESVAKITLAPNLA

B1: MBP-Atg11(522-583) (domain or fragment, S. pombe, UniProt O14261 522-583, looked up)
chain: SSQPFYRVSPSIVPLNVIRKLTNRKTSFTDSHILRLQDEVNQLRNELDLVNKRNEDLLIELQ
stoichiometry N (SEC): 2

binding result (HA-fused Atg1(593-830)): binds
Binder: SSQPFYRVSPSIVPLNVIRKLTN (domain or fragment, S. pombe, UniProt O14261 522-544, looked up) [GST-fused Atg11(522-544)]
